# Measured values taken from patent US11708423B2, “Chimeric engulfment receptor molecules and methods of use” (CERO THERAPEUTICS, INC., priority 2017, dated 2023).
# B1: CER21: Tim4 binding and transmembrane domains, TLR8 signaling domain; SEQ ID NO:88 (protein)
# chain: MSKGLLLLWLVTELWWLYLTPAASEDTIIGFLGQPVTLPCHYLSWSQSRNSMCWGKGSCPNSKCNAELLRTDGTRIISRKSTKYTLLGKVQFGEVSLTISNTNRGDSGVYCCRIEVPGWFNDVKKNVRLELRRATTTKKPTTTTRPTTTPYVTTTTPELLPTTVMTTSVLPTTTPPQTLATTAFSTAVTTCPSTTPGSFSQETTKGSAFTTESETLPASNHSQRSMMTISTDIAVLRPTGSNPGILPSTSQLTTQKTTLTTSESLQKTTKSHQINSRQTILIIACCVGFVLMVLLFLAFLHHLFYWDVWFIYNVCLAKVKGYRSLSTSQTFYDAYISYDTKDASVTDWVINELRYHLEESRDKNVLLCLEERDWDPGLAIIDNLMQSINQSKKTVFVLTKKYAKSWNFKTAFYLALQRLMDENMDVIIFILLEPVLQHSQYLRLRQRICKSSILQWPDNPKAEGLFWQTLRNVVLTENDSRYNNMYVDSIKQY
# modifications: CER21 chimeric engulfment receptor
# B2: CER123: Tim4 binding and transmembrane domains, TLR2 primary and TRAF6 secondary signaling domains; SEQ ID NO:150 (protein)
# chain: MSKGLLLLWLVTELWWLYLTPAASEDTIIGFLGQPVTLPCHYLSWSQSRNSMCWGKGSCPNSKCNAELLRTDGTRIISRKSTKYTLLGKVQFGEVSLTISNTNRGDSGVYCCRIEVPGWFNDVKKNVRLELRRATTTKKPTTTTRPTTTPYVTTTTPELLPTTVMTTSVLPTTTPPQTLATTAFSTAVTTCPSTTPGSFSQETTKGSAFTTESETLPASNHSQRSMMTISTDIAVLRPTGSNPGILPSTSQLTTQKTTLTTSESLQKTTKSHQINSRQTILIIACCVGFVLMVLLFLAFLHRFHGLWYMKMMWAWLQAKRKPRKAPSRNICYDAFVSYSERDAYWVENLMVQELENFNPPFKLCLHKRDFIPGKWIIDNIIDSIEKSHKTVFVLSENFVKSEWCKYELDFSHFRLFDENNDAAILILLEPIEKKAIPQRFCKLRKIMNTKTYLEWPMDEAQREGFWVNLRAAIKSMSLLNCENSCGSSQSESDCCVAMASSCSAVTKDDSVGGTASTGNLSSSFMEEIQGYDVEFDPPLESKYECPICLMALREAVQTPCGHRFCKACIIKSIRDAGHKCPVDNEILLENQLFPDNFAKREILSLMVKCPNEGCLHKMELRHLEDHQAHCEFALMDCPQCQRPFQKFHINIHILKDCPRRQVSCDNCAASMAFEDKEIHDQNCPLANVICEYCNTILIREQMPNHYDLDCPTAPIPCTFSTFGCHEKMQRNHLARHLQENTQSHMRMLA
# modifications: CER123 protein
# B3: CER104: Tim4 binding and transmembrane domains, TLR8 primary and DAP12 secondary signaling domains; SEQ ID NO:133 (protein)
# chain: MSKGLLLLWLVTELWWLYLTPAASEDTIIGFLGQPVTLPCHYLSWSQSRNSMCWGKGSCPNSKCNAELLRTDGTRIISRKSTKYTLLGKVQFGEVSLTISNTNRGDSGVYCCRIEVPGWFNDVKKNVRLELRRATTTKKPTTTTRPTTTPYVTTTTPELLPTTVMTTSVLPTTTPPQTLATTAFSTAVTTCPSTTPGSFSQETTKGSAFTTESETLPASNHSQRSMMTISTDIAVLRPTGSNPGILPSTSQLTTQKTTLTTSESLQKTTKSHQINSRQTILIIACCVGFVLMVLLFLAFLHHLFYWDVWFIYNVCLAKVKGYRSLSTSQTFYDAYISYDTKDASVTDWVINELRYHLEESRDKNVLLCLEERDWDPGLAIIDNLMQSINQSKKTVFVLTKKYAKSWNFKTAFYLALQRLMDENMDVIIFILLEPVLQHSQYLRLRQRICKSSILQWPDNPKAEGLFWQTLRNVVLTENDSRYNNMYVDSIKQYYFLGRLVPRGRGAAEAATRKQRITETESPYQELQGQRSDVYSDLNTQRPYYK
# modifications: CER104 protein
# Legend:
# human primary B cells = experiment: Proliferation of CER+ B cells co-cultured with paclitaxel treated Jurkat cells (CELLTRACE Violet dilution); assay type: cell-based; conditions: 5 days co-culture with paclitaxel (30 μM) treated Jurkat cells, no exogenous cytokines
# Description: The proliferation capacity of CER19+ and CER21+ human primary B cells was evaluated by co-culture with paclitaxel (30 μM) treated Jurkat lymphoma cells. CER-transduced B cells were labeled with CELLTRACE Violet and then co-cultured with paclitaxel treated Jurkat cells a target cell to effector cell ratio of 5:1 at 37° C. in the absence of exogenous cytokines for 5 days. Proliferation of CER19+ or CER21+B cells was assessed by flow cytometry by measuring dilution of CELLTRACE Violet (FIG. 23). Both CER19+ and CER21+ B cells increased approximately 10-fold after 5 days of co-culture in the absence of exogenous cytokines.
# [1] = test system: HCC159 lung adenocarcinoma cells; experiment: Interferon Gamma secretion, HCC159 co-culture; assay type: cell-based; conditions: Osimeritinib 0, 1, 5 nM; 18 hours
# Description: HCC159 lung adenocarcinoma cells were co-cultured with CER123- or CER126-expressing CD4+ T cells with increasing concentrations of Osimeritnib (0, 1 nM, 5 nM). After 18 hours of co-culture, bulk supernatants were evaluated using a LDH-based cytotoxicity assay. T cells assays were performed using purified, EGFR^+ (transduction marker), CER modified T cells 7 days after activation using CD3 & CD28 microbeads at effector:target cell ratios of 2:1 or 5:1. Control “Mock” T cells were transduced with vector alone. […] Bulk supernatants were also analyzed after 18 hours of co-culture for Interferon Gamma (IFNγ) secretion (FIG. 50). Control “Mock” T cells were transduced with vector alone.
# HPV E7 oncoproteins = experiment: Antigen cross-presentation, E6/E7 TCR NFAT-luciferase Jurkat reporter; assay type: cell-based, human; conditions: CD4+ and CD8+ T cells after phagocytosis of SCC152 HPV+ cells, compared to mock
# Source text: CD4+ and CD8+CER-expressing T cell lines were established from human PBMCs. Purified T cells were transduced with lentivirus encoding CER123 (SEQ ID NO:150) and truncated EGFR (transduction marker), after activation with CD3 & CD28 microbeads, and then expanded in medium containing IL-7, IL-15, and IL-2 for 5 days. The percentage of tEGFR+ T cells ranged between 40-60%.
# A Jurkat cell line with a stable integration of an NFAT-inducible Luciferase reporter construct was utilized to study T cell responses. Human E6- and E7-specific engineered TCRs were transduced into Jurkat NFAT reporter cell lines to characterize NFAT activation upon co-culture with engineered CERs.
# For assessing MHC-I cross-presentation, SCC152 HPV^+ cells were co-cultured overnight with CER123-expressing CD4+ and CD8+ T cells or mock-transduced (vector only) T cells in the presence of T cells expressing an E7-specific TCR. […] NFAT activation was assessed at serial time points (0, 6, 12, 24, and 72 hrs) by measuring luciferase activity in cell culture supernatants. […] Induction of E711-19 —specific Jurkat T cells were quantified by luminescence of NFAT signaling at indicated time points and compared to Mock (vector-alone) transduced T cells (FIG. 87).
# [2] = test system: CER-transduced CD4+ T cells; experiment: Mass cytometry (CyTOF) with viSNE marker analysis of CER-transduced CD4+ T cells; assay type: cell-based, human
# Source text: CD4+ T cells were transduced with lentiviral vector comprising CER104, CER116, or CER117 nucleic acid. CER104 (SEQ ID NO:133) comprises a Tim4 binding domain, Tim4 transmembrane domain, and an engulfment signaling domain comprising a primary engulfment signaling domain comprising a TLR8 signaling domain and a secondary engulfment signaling domain comprising a DAP12 signaling domain. CER116 (SEQ ID NO:143) comprises a Tim4 binding domain, Tim4 transmembrane domain, and an engulfment signaling domain comprising a primary engulfment signaling domain comprising a TRAF6 signaling domain and a secondary engulfment signaling domain comprising a TLR8 signaling domain. CER117 (SEQ ID NO:144) comprises a Tim4 binding domain, Tim4 transmembrane domain, and an engulfment signaling domain comprising a primary engulfment signaling domain comprising a TLR8 signaling domain and a secondary engulfment signaling domain comprising a TRAF6 signaling domain. CER-transduced CD4+ T cells were co-cultured with E7 TCR-transduced CD8+ T cells and HPV+SCC152 target cells and interrogated by mass cytometry (CyTOF) with viSNE for visualization of high dimensional single cell data (FIGS. 82-84). Intact CER-transduced CD4+ T cells are shown in plots displaying tSNE1 (horizontal) and tSNE2 (vertical) axes. 27 intracellular markers were used for the viSNE analysis. Each dot represents a single cell. […] Red represents high expression and blue represents low expression for each marker. Populations of CD4^+ T cells were generated using a clustering algorithm from all 27 markers and overlaid onto the viSNE map. […] Populations of CD4^+ T cells were generated using a clustering algorithm from all 18 markers and overlaid onto the viSNE map (FIG. 83A). […] Color plots by 18 intracellular markers (CD28, CCR7, CD45RA, PD1, CD127, Perforin, CD49d, CD85j, CD38, CD27, Granzyme B, CD57, CD25, CD69, CD154, CD56, HLA-DR, and TCRγδ) show the phenotype across viSNE ‘islands’ (FIG. 83B). Red represents high expression and blue represents low expression for each marker. Highlighted region with arrow indicates cells expressing T cell activation marker CD69. Populations of CD4^+ T cells were generated using a clustering algorithm from 18 intracellular markers (CD28, CCR7, CD45RA, PD1, CD127, Perforin, CD49d, CD85j, CD38, CD27, Granzyme B, CD57, CD25, CD69, CD154, CD56, HLA-DR, and TCRγ6) and overlaid onto the viSNE map. […] Color plots by the 18 intracellular markers show the phenotype across viSNE ‘islands’ (FIG. 84B). Red represents high expression and blue represents low expression for each marker. Highlighted region with arrow indicates cells expressing the naïve T cell marker CD45RA.
# SCC152 cells = experiment: LDH cytotoxicity assay, CD4 T cell/CER104 + CD8 T cell/HPV16 E7 TCR co-culture; assay type: cell-based, human; conditions: CD4/CER + CD8/HPV16 E7 TCR 1:1, 4 hours
# Source text: LDH is a cytosolic enzyme that is released by a cell into cell culture media when the plasma membrane is damaged. Thus, LDH's presence in culture medium is a marker for cell death. LDH assays are capable of detecting low level damage to cell membrane which cannot be detected using other methods. LDH may be detected using colorimetric or fluorometric methods.
molecule,measurement,setting,value
B1,increase of CER+ B cells,human primary B cells,approximately 10 fold
B2,Interferon Gamma (IFNγ) secretion,[1],inducible cytokine secretion
same,cross-presentation of HPV E7 oncoproteins (NFAT activation),HPV E7 oncoproteins,enhanced cross-presentation efficiency of HPV E7 oncoproteins
B3,memory formation after antigen encounter,[2]; CD4+ T cells,associated with memory formation after antigen encounter
same,viSNE islands expressing T cell activation marker CD69,[2]; CD4+ T cells after antigen encounter,enrichment of islands expressing the T cell activation marker CD69
same,viSNE islands expressing intracellular marker IFNγ,[2]; CD4+ T cells after co-culture with E7 TCR CD8+ T cells and SCC152 cells,enrichment of islands expressing the intracellular marker IFNγ
same,viSNE islands expressing naïve T cell marker CD45RA within the CCR7+ population,[2]; compared to controls,loss of islands expressing the naïve T cell marker CD45RA
same,cytolytic activity (LDH cytotoxicity assay),SCC152 cells,enhanced cytolytic activity
